Results: the Immune Epitope Database (IEDB)
Each block holds one sequence with its values, some of them ahead of it.

Tests used:
[1] = molecular target: HLA-B*39:01; experiment: IEDB peptide-MHC binding, purified MHC/competitive/fluorescence; filed as Kd, often an IC50 or EC50 that approximates it; ≥ and ≤ were set here for values at or beyond the usual limits of such assays
[2] = molecular target: HLA-B*18:01; experiment: as above
[3] = molecular target: HLA-A*26:01; experiment: as above
[4] = molecular target: HLA-B*15:01; experiment: as above; conditions: source organism: Vibrio parahaemolyticus K5030
[5] = molecular target: HLA-A*02:11; experiment: as above; conditions: source organism: Vibrio parahaemolyticus K5030
[6] = molecular target: HLA-A*02:12; experiment: as above
[7] = molecular target: HLA-A*02:01; experiment: as above; conditions: source organism: Vibrio parahaemolyticus K5030
[8] = molecular target: HLA-A*03:01; experiment: as above; conditions: source organism: Vibrio parahaemolyticus K5030
[9] = molecular target: HLA-A*29:02; experiment: as above
[10] = molecular target: HLA-B*27:03; experiment: as above
[11] = molecular target: HLA-B*51:01; experiment: as above
[12] = molecular target: HLA-B*57:01; experiment: as above
[13] = molecular target: HLA-B*46:01; experiment: as above
[14] = molecular target: HLA-A*02:19; experiment: as above; conditions: source organism: Vibrio parahaemolyticus K5030
[15] = molecular target: HLA-A*02:03; experiment: as above; conditions: source organism: Vibrio parahaemolyticus K5030
[16] = molecular target: HLA-B*40:01; experiment: IEDB peptide-MHC binding, purified MHC/direct/fluorescence; filed as Kd, often an IC50 or EC50 that approximates it; ≥ and ≤ were set here for values at or beyond the usual limits of such assays
[17] = molecular target: HLA-B*27:05; experiment: as above
[18] = molecular target: HLA-B*08:01; experiment: as above; conditions: source organism: SARS-CoV1
[19] = molecular target: HLA-A*11:01; experiment: as above
[20] = molecular target: HLA-A*03:01; experiment: as above
[21] = molecular target: HLA-C*06:02; experiment: as above
[22] = molecular target: HLA-A*68:02; experiment: IEDB peptide-MHC binding, purified MHC/competitive/fluorescence; filed as Kd, often an IC50 or EC50 that approximates it; ≥ and ≤ were set here for values at or beyond the usual limits of such assays; conditions: source organism: Escherichia coli HS
[23] = molecular target: HLA-B*15:17; experiment: as above; conditions: source organism: Escherichia coli HS
[24] = molecular target: HLA-A*69:01; experiment: IEDB peptide-MHC binding, purified MHC/direct/fluorescence; filed as Kd, often an IC50 or EC50 that approximates it; ≥ and ≤ were set here for values at or beyond the usual limits of such assays; conditions: source organism: Escherichia coli O157:H7
[25] = molecular target: HLA-B*48:01; experiment: as above; conditions: source organism: Escherichia coli O157:H7
[26] = molecular target: HLA-A*31:01; experiment: as above; conditions: source organism: Escherichia coli O157:H7
[27] = molecular target: HLA-B*18:01; experiment: as above; conditions: source organism: Escherichia coli O157:H7
[28] = molecular target: HLA-A*02:01; experiment: as above
[29] = molecular target: HLA-A*01:01; experiment: as above; conditions: source organism: Escherichia coli O157:H7
[30] = molecular target: HLA-B*44:02; experiment: as above; conditions: source organism: Escherichia coli O157:H7
[31] = molecular target: HLA-B*58:01; experiment: as above; conditions: source organism: Escherichia coli O157:H7
[32] = molecular target: HLA-B*57:01; experiment: as above; conditions: source organism: Escherichia coli O157:H7
[33] = molecular target: HLA-B*07:02; experiment: as above; conditions: source organism: Escherichia coli O157:H7
[34] = molecular target: HLA-A*68:02; experiment: as above; conditions: source organism: Limestone Canyon virus
[35] = source organism: Vibrio parahaemolyticus K5030
[36] = source organism: Escherichia coli O157:H7
[37] = source organism: Orthohantavirus puumalaense

Sequence: AGGWVLWKV
Kd [1, 35]: ≥ 20 µM
Kd [2, 35]: ≥ 20 µM
Kd [3, 35]: ≥ 20 µM
Kd [4]: ≥ 20 µM
Kd [5]: 0.0015 µM
Kd [6, 35]: ≥ 20 µM
Kd [7]: ≥ 20 µM
Kd [8]: ≥ 20 µM
Kd [9, 35]: ≥ 20 µM
Kd [10, 35]: ≥ 20 µM
Kd [11, 35]: ≥ 20 µM
Kd [12, 35]: ≥ 20 µM
Kd [13, 35]: ≥ 20 µM
Kd [14]: ≥ 20 µM
Kd [15]: ≥ 20 µM

Sequence: FGMPNPEGY
Kd ([9]; source organism: Desulfuromonas acetoxidans DSM 684): 0.0231 µM

Sequence: FRYMNSQGL
Kd ([16]; source organism: SARS-CoV1): ≥ 45.5 µM
Kd ([17]; source organism: SARS-CoV1): 0.0513 µM
Kd [18]: 7.93 µM
Kd ([19]; source organism: SARS-CoV1): ≥ 21.9 µM
Kd ([20]; source organism: SARS-CoV1): ≥ 36.3 µM
Kd ([21]; source organism: SARS-CoV1): 0.002 µM

Kd [22]: 2.64 µM
Kd [23]: 1.12 µM
Kd [16, 36]: 0.019 µM
Kd [17, 36]: ≥ 20 µM
Kd [24]: ≥ 20 µM
Kd [25]: ≥ 20 µM
Kd [26]: ≥ 20 µM
Kd [27]: 0.101 µM
Kd [19, 36]: ≥ 20 µM
Kd [28, 36]: ≥ 20 µM
Kd [29]: ≥ 20 µM
Kd [30]: ≥ 20 µM
Kd [31]: ≥ 20 µM
Kd [32]: ≥ 20 µM
Kd [33]: ≥ 20 µM
Sequence: GEIFGLLGP

Sequence: GRYYVLQFV
Kd ([21]; source organism: Listeria monocytogenes J0161): 0.301 µM

Kd ([6]; source organism: Haemophilus influenzae): 0.0268 µM
Sequence: HLGGFVHAC

Sequence: IILKALYML
Kd [1, 37]: ≥ 20 µM
Kd [2, 37]: ≥ 20 µM
Kd [3, 37]: ≥ 20 µM
Kd [10, 37]: ≥ 20 µM
Kd [11, 37]: ≥ 20 µM
Kd [12, 37]: ≥ 20 µM
Kd [13, 37]: ≥ 20 µM
Kd [34]: ≥ 20 µM
Kd [28, 37]: 0.0074 µM
Kd ([20]; source organism: Limestone Canyon virus): ≥ 20 µM
